Measurements: IntAct's records for PubMed 16830178

B1: ADP-ribosylation factor 3 (Arabidopsis thaliana (Mouse-ear cress)), P40940 (parent)
chain: MGILFTRMFSSVFGNKEARILVLGLDNAGKTTILYRLQMGEVVSTIPTIGFNVETVQYNNIKFQVWDLGGQTSIRPYWRCYFPNTQAVIYVVDSSDTDRIGVAKEEFHAILEEDELKGAVVLIFANKQDLPGALDDAAVTEALELHKIKSRQWAIFKTCAVKGEGLFEGLDWLSNTLKSGSG
partner: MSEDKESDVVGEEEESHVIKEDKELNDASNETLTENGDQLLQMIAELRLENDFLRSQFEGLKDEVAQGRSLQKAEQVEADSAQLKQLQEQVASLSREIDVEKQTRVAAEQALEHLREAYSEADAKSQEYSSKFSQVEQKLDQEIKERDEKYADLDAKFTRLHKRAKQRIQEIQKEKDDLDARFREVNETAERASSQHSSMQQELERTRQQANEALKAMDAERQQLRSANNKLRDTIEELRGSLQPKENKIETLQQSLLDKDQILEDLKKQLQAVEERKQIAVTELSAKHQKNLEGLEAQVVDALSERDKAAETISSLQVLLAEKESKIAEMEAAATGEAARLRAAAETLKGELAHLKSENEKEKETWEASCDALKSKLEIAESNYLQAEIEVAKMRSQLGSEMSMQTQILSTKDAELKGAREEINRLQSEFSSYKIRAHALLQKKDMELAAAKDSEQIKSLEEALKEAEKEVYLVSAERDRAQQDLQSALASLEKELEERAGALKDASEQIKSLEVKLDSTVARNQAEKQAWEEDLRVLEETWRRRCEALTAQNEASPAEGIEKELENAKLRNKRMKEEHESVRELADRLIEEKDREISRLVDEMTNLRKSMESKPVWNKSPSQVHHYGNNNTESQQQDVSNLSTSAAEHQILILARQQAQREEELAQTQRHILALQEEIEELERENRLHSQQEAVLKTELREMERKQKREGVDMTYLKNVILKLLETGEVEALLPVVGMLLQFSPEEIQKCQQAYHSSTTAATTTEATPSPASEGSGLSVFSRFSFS
B2: Protein GRIP (Arabidopsis thaliana (Mouse-ear cress)), Q8S2T0 (parent)
chain: B1 partner
partner: B1 chain

Variants of: B1
Conditions: with grip_arath GRIP, Q8S2T0

Variant	effect of a mutation on the interaction
MGILFTRMFSSVFGNKEARILVLGLDNAGKTTILYRLQMGEVVSTIPTIGGNVETVQYNNIKFQVWDLGGQTSIRPYWRCYFPNTQAVIYVVDSSDTDRIGVAKEEFHAILEEDELKGAVVLIFANKQDLPGALDDAAVTEALELHKIKSRQWAIFKTCAVKGEGLFEGLDWLSNTLKSGSG [F51G]	decreasing interaction
MGILFTRMFSSVFGNKEARILVLGLDNAGKTTILYRLQMGEVVSTIPTIGFNVETVQYNNIKFQVWDLGGQTSIRPYWRCGFPNTQAVIYVVDSSDTDRIGVAKEEFHAILEEDELKGAVVLIFANKQDLPGALDDAAVTEALELHKIKSRQWAIFKTCAVKGEGLFEGLDWLSNTLKSGSG [Y81G]	decreasing interaction

Variants of: B1
Conditions: with grip_arath GRIP

Variant	effect of a mutation on the interaction
MGILFTRMFSSVFGNKEARILVLGLDNAGKTTILYRLQMGEVVSTIPTIGGNVETVQYNNIKFQVWDLGGQTSIRPYWRCYFPNTQAVIYVVDSSDTDRIGVAKEEFHAILEEDELKGAVVLIFANKQDLPGALDDAAVTEALELHKIKSRQWAIFKTCAVKGEGLFEGLDWLSNTLKSGSG [F51G]	disrupting interaction
MGILFTRMFSSVFGNKEARILVLGLDNAGKTTILYRLQMGEVVSTIPTIGFNVETVQYNNIKFQVWDLGGQTSIRPYWRCGFPNTQAVIYVVDSSDTDRIGVAKEEFHAILEEDELKGAVVLIFANKQDLPGALDDAAVTEALELHKIKSRQWAIFKTCAVKGEGLFEGLDWLSNTLKSGSG [Y81G]	disrupting interaction

Variants of: B2
Conditions: with arf3_arath ARF3, P40940

Variant	effect of a mutation on the interaction
Y717A	decreasing interaction
K719A	decreasing interaction
